assay: label from the status in PepcDB records

**Q.** For “MTFRNCVAVDLGASSGRVMLARYERECRSLTLREIHRFNNGLHSQNGYVTWDVDSLESAIRLGLNKVCEEGIRIDSIGIDTWGVDFVLLDQQGQRVGLPVAYRDSRTNGLMAQAQQQLGKRDIYQRSGIQFLPFNTLYQLRALTEQQPELIPHIAHALLMPDYFSYRLTGKMNWEYTNATTTQLVNINSDDWDESLLAWSGANKAWFGRPTHPGNVIGHWICPQGNEIPVVAVASHDTASAVIASPLNGSRAAYLSSGTWSLMGFESQTPFTNDTALAANITNEGGAEGRYRVLKNIMGLWLLQRVLQERQINDLPALISATQALPACRFIINPNDBRFINPETMCSEIQAACRETAQPIPESDAELARCIFDSLALLYADVLHELAQLRGEDFSQLHIVGGGCQNTLLNQLCADACGIRVIAGPVEASTLGNIGIQLMTLDELNNVDDFRQVVSTTANLTTFTPNPDSEIAHYVARIHSTRQTKELCA”, which protein production is on record?
**A.** not failed

**Q.** With “MTFRYRGPSPKGDQPKAIAGLVEALRDGERFVTLLGATGTGKTVTMAKVIEALGRPALVLAPNKILAAQLAAEFRELFPENAVEYFISYYDYYQPEAYVPGKDLYIEKDASINPEIERLRHSTTRSLLTRRDVIVVASVSAIYGLGDPREYRARNLVVERGKPYPREVLLERLLELGYQRNDIDLSPGRFRAKGEVLEIFPAYETEPIRVELFGDEVERISQVHPVTGERLRELPGFVLFPATHYLSPEGLEEILKEIEKELWERVRYFEERGEVLYAQRLKERTLYDLEMLRVMGTCPGVENYARYFTGKAPGEPPYTLLDYFPEDFLVFLDESHVTVPQLQGMYRGDYARKKTLVDYGFRLPSALDNRPLRFEEFLERVSQVVFVSATPGPFELAHSGRVVEQIIRPTGLLDPLVRVKPTENQILDLMEGIRERAARGERTLVTVLTVRMAEELTSFLVEHGIRARYLHHELDAFERQALIRDLRLGHYDCLVGINLLREGLDIPEVSLVAILDADKEGFLRSERSLIQTIGRAARNARGEVWLYADRVSEAMQRAIEETNRRRALQEAYNLEHGITPETVRKEVRAVIRPEGYEEAPLEADLSGEDLRERIAELELAMWQAAEALDFERAARLRDEIRALEARLQGVRAPEPVPGGRKRKRR” as the sequence, how does the protein production read?
**A.** not failed

**Q.** With “MTFSAPAPTQLDPVVRHLYVHVPFCPSICPYCDFHVLTRQAGLVERYLERLEQEAAELAAAYAVDLDTVYLGGGTPSFLRDHELRALVESVQRHLGWGRAENTLEINPGTVSTERAALWRSLGFDRASVGVQSLDDATLKFLGRRHDARQARDAVSRLIAQDFRVSGDLITAVPGQPLDSDIHGLVELGVGHVSAYTLTIEPGTEFARRGVQVDEDAEREGFERTEELLAGHGFSRYEVSNYARAGQESRHNLSYWQGKTYLGLGPGAAGHYPVPTPGADALTLRRTNPHLHDWLVGQQGETLLVDPHEYVTDALFMGLRLRRGLDLADLTRRSGVDVAGRYGLVIERQVRLGLLEHSGTNLRATAQGWWVLNRIVREFMEVDAAETA” as the sequence, how does the protein production read?
**A.** failed

**Q.** For “MTFSNQLTILRIILVPVFVLLLMQDSAWYRLLGVIVFVTASLTDIYDGYHARKYGEVTRLGAFLDPLADKLLITTAFLFYVWEGYLALWMVLLVAARDIVVTGLRVYAEHIDHPVVTSKEAKYKTFAQNLFAYVIMLFILLKEKSFFGPKMAAFMEVILHSPWLGYAMFAITLFTVWTGVSYLISNRRLIFRNSAGGR”, which protein production is on record?
**A.** not failed

**Q.** With “MTFTDALGQAHAPVDTTPRIASLVPSITDLLFSLDLGGQLVARTGFCIHPREAVRAIPKVGGTKTVKLDRLRELAPTHVIVNIDENTRETADKLREFVPHVIVTHPCAPEDNLTLYGLLGGIFRREAQAQRLSEALARELAALRGQVFPLRRVLYAIWQDPWMTVARDTYISRMLALIGCQTWPEDPAPVQCGTGRHGDCARPNRPDTRYPTFRWSDEVVRNIDCVLLSTEPYSFTEAHADALEKQIGKPVYLVDGEMVSWYGSRAIEGVRYLGRLAQALT” as the sequence, how does the protein production read?
**A.** failed

**Q.** Which protein production does the source give for “MTFYDREAELDTLSDAVESPGADFVVVYGRRRVGKTELLKEFCANRPHIYFLAAQEAEHRQREKFLDQVADYFDERVPRIDGWDEAFEYLGEQLQREDLVVVIDEFPYLVAENDSLPSYVQGFVDQELDGTDSMIVLCGSSVSTMESEILGHESPLYGRRTAQLDVTPFSFQQAREVISYDIQDAIRSYAVTGGTPMYLTLFDYTQSLAANIQSHVLSPSAVLYNEPEFLLRTELRNPARYMSILEAVALGHTTPNEISGATGIDSGPLSKYLQTLRRLRLIERDVPVMASGKKSKRSRYRVADEFLRFWFRYVEPNRSSIEEAPEIVYDGTIEPDLPTHVATTFEDVCQEAVWEGIRRGTFDPYSEVGRWWYGEEEIDIVGLAPNDDRVLLAECKWTTDPVGEDLVESLRAKAEHVRWGPPDRDEQFALFSKSGFVDGLEAQLDDSWSLFTVADIDDLLTPS” here?
**A.** failed

Reference: a protein production outcome set (Wang et al. 2014)
